Consider six molecules from article PMC4380410.

Series [1] addresses CfaR^full-HIS6 (Streptomyces scabies). As to the kind of experiment: cross-linking; glutaraldehyde (1 μL of 2.3% w/v) added to 80 pmol purified protein in 20 mM sodium phosphate pH 7.5, 20 μL, 5 min at 37°C; stopped with Tris-HCl pH 8.0; SDS-PAGE (12%), Coomassie staining.
Series [2] deals with CfaR^ΔLuxR-HIS6 (Streptomyces scabies). The series is described as above.
Series [3] addresses T1, CfaRfull-HIS6 (Streptomyces scabies 87-22) (UniProt C9ZEC8).
T1 sequence: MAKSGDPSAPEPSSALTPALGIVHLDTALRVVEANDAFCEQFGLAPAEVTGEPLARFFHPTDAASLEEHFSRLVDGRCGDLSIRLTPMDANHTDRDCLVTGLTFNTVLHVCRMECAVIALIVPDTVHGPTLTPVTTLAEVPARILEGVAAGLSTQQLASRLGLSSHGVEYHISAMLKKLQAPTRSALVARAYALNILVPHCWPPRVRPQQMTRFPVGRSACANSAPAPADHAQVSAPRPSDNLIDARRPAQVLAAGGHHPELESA
As to the kind of experiment: EMSA. The conditions noted are these: LightShift Chemiluminescent EMSA kit per manufacturer; buffer, salt, pH and temperature not stated (protein stored in 20 mM sodium phosphate, 150 mM NaCl, 20% …). (In general: Mobility shift assays separate free from complexed probe on a gel.)

In a further series the target is CfaRfull-HIS6 (Streptomyces scabies 87-22, UniProt C9ZEC8 1-265). The experiment in a line: EMSA; 0.1 pmol probe, 2 pmol protein; LightShift Chemiluminescent EMSA kit per manufacturer; buffer, salt, pH and temperature not stated (protein stored in 20 mM sodium phosphate, 150 mM NaCl, 20% glycerol, pH 7.8). The conditions noted are these: protein: recombinant; tags: C-terminal His6; chain copies: 2; blunt.

In general, stoichiometry N refers to a count of units in the complex or per binding partner.

CfaR^full-HIS6 (natural protein) had a stoichiometry N in series [1] of 2.
Regarding CfaR^ΔLuxR-HIS6 (domain or fragment), the stoichiometry N in series [2] is 2.
With “GACCTTCGTTCTGTAGCCCTTGTATGGTCGCATTGCCTCCGCAGGTCGACCCCTTTCGGCACCATAGGAGACCCTCTTGGCGAACATCGAATCGACCATCAAGCACATCCTGGTCGACGATCTCTTCATCACTGTGCCG (double strand) [fragment b]”, the binding result in series [3] is reported as “no binding”.
Same read-out and setting: with “GCACAGGAAGGAGGAGAACCCCTCACCTCGGGCCCTTGGACCCGACACACCCGCAGCGCGTGCGACGGTTCCTGCGCCGGCCGGCCTGACAAACCAGGGCGAGACGCCGCATCTGCGGAACCGGTCGACCCGCAGACGAATCGTGGCCGACGCCAACCCGAATGCGGG (double strand) [fragment c]” the entry was “no binding”.

B1: P1 probe (LC12/LC13) (dsDNA)
DNA 1: CGAATGCGGGGACTAGGGATTCTCCTAGTCGACCTTCGTT
DNA 2: AACGAAGGTCGACTAGGAGAATCCCTAGTCCCCGCATTCG
Turning to B1, the binding result with CfaRfull-HIS6 was “binds”.

B2: P2 control probe (LC14/LC15) (dsDNA)
DNA 1: TGTGGTTCGCGTCCATGGGTGTCAGGCGGATGCTTAAGTC
DNA 2: GACTTAAGCATCCGCCTGACACCCATGGACGCGAACCACA
With B2, the binding result with CfaRfull-HIS6 is “no binding”.
